By Kd is commonly meant the free concentration of one partner at which half of the binding sites on the other are occupied at equilibrium, for simple one-to-one binding. Lower therefore signals tighter binding.

The series has as its target AGO2 (UniProt Q9UKV8). Nature of the series: MST. The note with it: MST: labeled protein 5-150 nM, ligand 1E-10 to 1E-5 M, 5-15 min, buffer and temperature not stated, pull-down: 150 mM NaCl, 50 mM Tris pH 7.4, 1% Triton X-100 ….

AGO2, sequence (Q9UKV8 whole entry): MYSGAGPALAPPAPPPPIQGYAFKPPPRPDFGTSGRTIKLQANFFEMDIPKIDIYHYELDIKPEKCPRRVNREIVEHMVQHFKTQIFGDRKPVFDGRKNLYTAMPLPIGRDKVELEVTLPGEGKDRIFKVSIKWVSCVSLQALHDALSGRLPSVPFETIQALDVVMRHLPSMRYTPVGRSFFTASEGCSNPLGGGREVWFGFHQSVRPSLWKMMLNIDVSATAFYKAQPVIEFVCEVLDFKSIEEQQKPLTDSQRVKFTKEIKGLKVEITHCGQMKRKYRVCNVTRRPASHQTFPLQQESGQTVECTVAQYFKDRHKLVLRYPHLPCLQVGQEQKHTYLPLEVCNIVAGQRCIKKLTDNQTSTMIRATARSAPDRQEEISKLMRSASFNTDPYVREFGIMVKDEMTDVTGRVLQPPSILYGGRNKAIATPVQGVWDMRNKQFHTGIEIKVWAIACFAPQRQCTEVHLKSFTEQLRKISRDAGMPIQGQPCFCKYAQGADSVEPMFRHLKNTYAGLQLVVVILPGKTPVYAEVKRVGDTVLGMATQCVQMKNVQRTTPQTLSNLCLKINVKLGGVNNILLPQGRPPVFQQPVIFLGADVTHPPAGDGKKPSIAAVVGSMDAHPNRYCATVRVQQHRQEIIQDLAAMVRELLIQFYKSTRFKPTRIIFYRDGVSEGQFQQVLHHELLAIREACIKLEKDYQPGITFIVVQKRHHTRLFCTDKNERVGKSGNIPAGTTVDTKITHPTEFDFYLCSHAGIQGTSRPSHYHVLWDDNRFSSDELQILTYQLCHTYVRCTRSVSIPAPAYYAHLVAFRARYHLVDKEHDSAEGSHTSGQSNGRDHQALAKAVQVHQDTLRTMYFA

Under “no 5'-triphosphate”, 5'ppp-dsRNA Control (dsRNA control) had a Kd of 2200 nM.

The substance 5'ppp-dsRNA gave a Kd (5'-triphosphate) of 2200 nM.

3p-hpRNA (5'ppp hairpin RNA) displayed a Kd (no competitor, 5'-triphosphate) of 205 nM. In other words, the sub-micromolar range.

These data come from article PMC12424427.
